According to patent US6541208B1, “Diagnostic method for distinguishing HIV-associated dementia from other forms of dementia” (University of Maryland Biotechnology Institute, priority 1998, dated 2003):
“Also recorded” adds a separate entry of the source.

B1: Tat: Highly purified recombinant Tat1-72, HIV-1 encoded transactivator protein (protein, UniProt P04608 1-72, looked up, fragment)
chain: MEPVDPRLEPWKHPGSQPKTACTNCYCKKCCFHCQVCFITKALGISYGRKKRRQRRRAHQNSQTHQASLSKQ
B2: Tat1-86: Tat1-86 (Intracel), HIV-1 Tat protein (protein, UniProt P04608 1-86, looked up)
chain: MEPVDPRLEPWKHPGSQPKTACTNCYCKKCCFHCQVCFITKALGISYGRKKRRQRRRAHQNSQTHQASLSKQPTSQPRGDPTGPKE
modifications: full-length
notes: Tat1-86 (Intracel), HIV-1 Tat protein

Key:
astrocytes = test: Astrocyte proliferation assay (tritiated thymidine); type: cell-based, human; settings: Tat 10-1000 nM, twenty hr after administration
Protocol: Astrocytes were grown in 96 well plates. At 70% confluency, cells were treated with varying concentrations of exogenous Tat, in media, which contained 1 μCi per well of tritiated thymidine (New England Nuclear). […] Filters were then dried and placed into scintillation fluid for counting in a Betaplate Apparatus.

[1] = system: astrocytic MCP-1 expression; test: Northern blot analysis of MCP-1 RNA in stimulated human astrocytes; type: cell-based
Text: FIG. 1A—Total RNA was extracted from T lymphoblastoid HUT 78 cells (ATCC), and from variously treated human astrocytes. Ten μg per lane were then run on a 1% agarose-6% formaldehyde gel. Following transfer of RNA to nitrocellulose, the blot was probed with the full-length cDNA for MCP-1, and subsequently, RANTES. RNA from untreated astrocytes was run in lanes 2 and 4. […] Astrocytic expression of RANTES was not detected.
FIG. 1B—Similar experience except that RNA from HUT 78 cells (lane 1) was compared to RNA from astrocytes that were unstimulated (lane 2) or stimulated for 2 hr with 100 nM Tat (lane 3), 25 μM TPCK followed by 100 nM Tat (lane 4) or 25 μM TPCK (lane 5).
Brain tissue from 12-14 wk human fetuses was obtained in accordance with NIH guidelines. The tissue was mechanically disrupted by aspiration through a 19-gauge needle, washed in Eagle's minimal essential medium (EMEM) and then distributed into tissue culture flasks. Cells were maintained in EMEM containing 10% fetal bovine serum, 2 mM L-glutamine and 5 μg/ml gentamicin. Several days later, flasks were placed into an orbital incubator shaker at 37° C. and 210 rpm for 6 hr. Non-adherent cells were removed. A portion of the adherent cells were later stained with an antibody to glial fibrallary acidic protein and only those cultures which were >95% positive were used. […]

[2] = system: astrocytic release of RANTES, MIP-1α and MIP-1β; test: ELISA detection of RANTES, MIP-1α and MIP-1β in astrocyte supernatants; type: cell-based, human; settings: Tat treated astrocytes; ELISA detection limit 10 pg/ml
Protocol: MIP1-1α, MIP-1β and RANTES were detected by ELISA (R&D Systems). These ELISAs could detect concentrations as low as 10 pg/ml. Protein measurements were determined by comparison to a standard curve, run in duplicate with each assay.
(§1) To determine whether increased expression of MCP-1 would correlate with increased protein synthesis or release, we next analyzed the supernatants of Tat treated astrocytes by ELISA and Western blot. […] This increase was specific in that astrocytic release of RANTES, MIP-1α and MIP-1β was not observed.

[3] = system: astrocytic release of MCP-1; test: Immunoassay (ELISA) and Western blot of MCP-1 in astrocyte supernatants; type: cell-based, human
Protocol: FIG. 2A—Astrocytes were grown to near confluency in […]. Each well contained 10^6 cells in 1 ml medium. Medium was then changed and astrocytes were stimulated with exogenous Tat in doses ranging from 0.01 to 1.0 μM. Twenty hr later, samples were taken for analysis by immunoassay (R&D Systems). […] Data are shown as means +S.E. for three replicates.
FIG. 2B—Similar experiment except that astrocytes were stimulated with 100 nM Tat or with an equivalent amount of Tat that had first been either digested with tripsin (Tat-tr) or immunoabsorbed (Tat-im).
FIG. 3—Western blot analysis of MCP-1 in astrocyte supernatants. In lanes 2-7, 50 μg of protein from variously treated astrocyte supernatants were run on a 15% Tris/Glycine denaturing gel. Three ng of non-glycosylated recombinant MCP-1 (R&D Systems) were run in lane 1 as a control. Following protein transfer to nitrocellulose, the blot was probed with a polyclonal antibody with recognized human MCP-1 (R&D Systems). After washing, an appropriate secondary antibody was applied (horse radish peroxidase conjugated anti-goat, [Santa-Cruz Biotechnology]) and electrochemilurninescence (Amersham) was used to visualize the bands. […] The lower arrow represents a band, which runs with an apparent molecular mass of 9 kDa while the upper band, of slighter high molecular mass, is likely to represent MCP-1, which has been altered by the addition of O-linked carbohydrates. Both forms of MCP-1 are active in vitro.
Astrocytes (10^6 per 1 ml medium) were stimulated with 100 nM HIV-1IIIB gp41 (Intracel) or 100 nM HIV-1IIB gp 120 (Intracel), and supernantants were assessed 24 hr. later by immunoassay (R&D Systems).
Trypsin digestion of Tat was performed by the addition of 25 μl of 0.25% trypsin per μg of Tat. The mixture was then incubated for 4 hr. before the 1:1 addition of soybean tripsin inhibitor (Sigma).
Immunoabsorption of Tat was performed as described previously by Magnusson et al. (1995). Briefly, a Tat specific monoclonal antibody (Intracel) was bound to protein A-sepharose (Pharmacia), washed, and then incubated with Tat for 60 min at room temperature, followed by centrifugation.
as §1

Row | Molecule | astrocyte proliferation (astrocytes) | astrocytic MCP-1 expression (MCP-1 encoding RNA) ([1]; 100 nM Tat, 2 or 4 hr stimulation, human astrocytes) | astrocytic release of RANTES, MIP-1α and MIP-1β [2] | release of MCP-1 after pre-treatment of Tat with trypsin ([3]; 100 nM equivalent of Tat digested with trypsin (Tat-tr)) | release of MCP-1 after immunoabsorption of Tat with a specific antibody ([3]; 100 nM equivalent of immunoabsorbed Tat (Tat-im)) | astrocytic release of MCP-1 ([3]; Tat 0.01 to 1.0 μM, 20 hr, 10^6 cells in 1 ml medium) | concentrations of Tat sufficient to increase astrocytic MCP-1 release ([3]; human astrocytes) | ability to increase astrocytic expression of MCP-1, compared with Tat1-72 ([1]; Tat1-86 (Intracel) versus recombinant Tat1-72)
1 | B1 | no measurable increase in astrocyte proliferation | increase in astrocytic MCP-1 expression; also recorded: increase in MCP-1 encoding RNA as early as 2 hr | not observed | could be inhibited | could be inhibited | significant increase in MCP-1 release; also recorded: dose-dependent increase in astrocytic release of MCP-1 | low nanomolar | 
2 | B2 |  |  |  |  |  |  |  | similar
